Measurements from patent US20110165170A1 (Pfizer, published 2011).
Like-named read-outs stand apart in the source and are kept apart here.

What was measured:
[1] = target: T1, recombinant human osteopontin (R&D Systems #1433-OP/CF, carrier free) (human, UniProt P10451 17-314, biotinylated in the capture ELISA, on the SET plates and on the Biacore streptavidin chip); test: Biacore 3000 (SPR), IgG flowed over amine-coupled human Osteopontin; avidity, 1:1 fit
T1 construct: Bought protein; also called hOPN; human OPN
T1 sequence (P10451 other isoform, or with tags, fused parts or gaps limits assumed): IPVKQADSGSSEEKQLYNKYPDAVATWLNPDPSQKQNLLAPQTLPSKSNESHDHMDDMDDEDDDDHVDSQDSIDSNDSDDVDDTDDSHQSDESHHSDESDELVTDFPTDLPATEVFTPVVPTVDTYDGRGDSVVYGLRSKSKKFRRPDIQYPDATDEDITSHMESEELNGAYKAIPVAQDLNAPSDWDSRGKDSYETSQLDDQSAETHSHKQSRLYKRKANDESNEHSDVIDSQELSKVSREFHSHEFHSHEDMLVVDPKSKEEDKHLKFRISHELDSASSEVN
Protocol: (§1) Binding avidity of monoclonal antibodies to Osteopontin was determined using Biacore analysis (General Electric Healthcare, Biacore 3000). To obtain nominal avidity measurements, human Osteopontin (R&D Systems, 1433-OP-050/CF) and mouse Osteopontin (R&D Systems, 441-OP-050/CF) were immobilized on a biosensor chip using standard amine coupling and various concentrations of monoclonal antibodies (MOR6990, MOR6991 and MOR6993) were flowed across the surface at 25.0° C. in 10 mM HEPES pH 7.4, 150 mM NaCl, 0.005% P20. The binding data were fit globally to a simple one-to-one binding model.

[2] = target: T1, recombinant human osteopontin (R&D …); test: cell-based or functional assay
[3] = target: T2, recombinant mouse osteopontin (R&D Systems #441-OP/CF, carrier free) (mouse, UniProt P10923 17-294, biotinylated in the capture ELISA); test: Biacore 3000 (SPR), IgG flowed over amine-coupled mouse Osteopontin; avidity, 1:1 fit
T2 construct: Bought protein; also called mOPN; mouse OPN
T2 sequence (P10923 17-294 limits assumed): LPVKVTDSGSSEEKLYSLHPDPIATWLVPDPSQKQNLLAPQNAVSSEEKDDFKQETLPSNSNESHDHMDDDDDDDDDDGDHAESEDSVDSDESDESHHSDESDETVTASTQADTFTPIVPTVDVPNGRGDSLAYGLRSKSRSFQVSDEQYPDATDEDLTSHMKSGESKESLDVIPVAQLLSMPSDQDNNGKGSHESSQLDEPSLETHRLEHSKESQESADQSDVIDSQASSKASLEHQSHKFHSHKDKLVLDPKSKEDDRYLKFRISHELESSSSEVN
Protocol: as §1

[4] = target: T2, recombinant mouse osteopontin (R&D …); test: Biacore (SPR), Fab over amine-coupled murine OPN on CM5 chip
Protocol: (§2) Binding to immobilized antigen was analyzed using the BIAcore3000 instrument (Biacore, Sweden).
(§3) For antigen immobilization, two alternative strategies were used: in the case of human OPN, biotinylated human OPN was bound to a Streptavidin coated sensor chip (Biacore, Sweden) to a binding level of approximately 300 RU. The reference flow cell was coated with a similar amount of biotinylated HSA. In the case of murine OPN, the antigen was immobilized covalently using standard EDC-NHS amine coupling chemistry. CM5 chips (Biacore, Sweden) were coated with murine OPN in 10 mM acetate buffer, pH 3.5 to a level of 400 RU. For the reference flow cell, a respective amount of HSA was used. Regeneration was accomplished with two injections of 10 mM Gly/HCl, pH 1.5 (5 μL) and 50 mM phosphoric acid (5 μL), respectively. Kinetic measurements were done in Dulbeccos PBS, pH 7.4 (Gibco) with 0.05% Tween 20 at a flow rate of 20 μL/min using a 2n serial dilution row of Fab samples. The Fab concentrations ranged from 15.6 to 500 nM. The injection time for each concentration was 1 minute, and the dissociation time was set to a minimum of 3 minutes. A blank injection of running buffer was used for double referencing. All sensorgrams were fitted globally using BIA evaluation software 3.2 (Biacore, Sweden), to determine association and dissociation rate constants (kₒₙ and koff), which were used to calculate the affinity (KD=koff/kₒₙ).

[5] = target: T1, recombinant human osteopontin (R&D …); test: Biacore (SPR), Fab over biotinylated human OPN on streptavidin chip
Protocol: as §2, §3

[6] = target: T1, recombinant human osteopontin (R&D …); test: cell-based or functional assay; remark: listed apart in the source
[7] = target: T1, recombinant human osteopontin (R&D …); test: solution equilibrium titration (SET), ECL, Fab
Protocol: Affinity determination in solution was basically performed as described in the literature (Friguet et al., J. Immunol. Methods 77:305 (1985)). In order to improve the sensitivity and accuracy of the SET method, it was transferred from classical ELISA to ECL based technology (Haenel et al., Anal. Biochem. 339:182-184 (2005)). 1 mg/mL goat-anti-human (Fab)₂ fragment specific antibodies (Dianova) were labeled with MSD Sulfo-TAG™ NHS-Ester (Meso Scale Discovery, Gaithersburg, Md., USA) according to the manufacturer's instructions. The experiments were carried out in polypropylene microtiter plates and PBS, pH 7.4, with 0.5% BSA and 0.02% Tween 20 as assay buffer. Unlabeled osteopontin was diluted in a 2n series, starting with a concentration at least 10 times higher than the expected KD. Wells without antigen were used to determine Bₘₐₓ values; wells with assay buffer were used to determine background. After addition of e.g. 25 pM Fab (final concentration in 60 μL final volume), the mixture was incubated over night at room temperature. The applied Fab concentration was similar to or below the expected KD.
Streptavidin coated MSD plates were blocked over night with 3% BSA in PBS (50 μL/well), subsequently the blocking solution was discarded and the plates were coated with […] biotinylated osteopontin in assay buffer (30 μL/well) for 1 hour. After washing the coated MSD plates with assay buffer, the equilibrated samples were transferred to those plates (30 μL/well) and incubated for 20 minutes. After washing, 30 μL/well of the MSD Sulfo-tag labeled detection antibody (goat anti-human (Fab)₂) in a final dilution of 1:1000 was added to the MSD plate and incubated for 30 minutes on an Eppendorf shaker (700 rpm).

[8] = target: T2, recombinant mouse osteopontin (R&D …); test: Biacore (SPR), Fab over immobilized mouse OPN
Protocol: as §3

[9] = target: T1, recombinant human osteopontin (R&D …); test: protein ELISA, Fab on human OPN protein
[10] = target: T3, SPP1 peptide comprising functional domains of human OPN (27 aa) (human); test: peptide ELISA, Fab on human SPP1 peptide
T3 construct: Target of the 'Peptide ELISA, hOPN' columns; also called hOPN peptide; SSP1 peptide

[11] = target: T2, recombinant mouse osteopontin (R&D …); test: protein ELISA, Fab on mouse OPN protein
[12] = target: T4, SPP1 peptide comprising functional domains of mouse OPN (27 aa) (mouse); test: peptide ELISA, Fab on mouse SPP1 peptide
T4 construct: Target of the 'Peptide ELISA, mOPN' columns; also called mOPN peptide; SSP1 peptide

[13] = target: T1, recombinant human osteopontin (R&D …); test: Biacore (SPR), Fab over immobilized human OPN

B1: MOR-6990 (full length human IgG2) (antibody, V domains shown)
VH: QVQLVESGGGLVQPGGSLRLSCAASGFTFSNYVMHWVRQAPGKGLEWVSSIFGSGSDTYYADSVKGRFTISRDNSKNTLYLQMNSLRAEDTAVYYCARSASSGFGFAGYGIDSWGQGTLVTVSS
VL: DIELTQPPSVSVAPGQTARISCSGDSLRYYYAHWYQQKPGQAPVLVIYDDNKRPSGIPERFSGSNSGNTATLTISGTQAEDEADYYCQSWDLFHSSVFGGGTKLTVLG
notes: Human IgG2, lambda light chain; made in HKB11 cells
- Kd [1]: 20.9 nM
- koff [1]: 0.00203 s⁻¹
- kon [1]: 96900 M⁻¹ s⁻¹
- Adhesion Assay Mn2+-dependent hOPN, IC50 [2]: 0.4 nM
- Kd [3]: 4.7 nM
- koff [3]: 0.000864 s⁻¹
- kon [3]: 183000 M⁻¹ s⁻¹

B2: HuCAL GOLD Fab 6990 (MOR-6990 Fab) (Fab, V domains shown)
VH: QVQLVESGGGLVQPGGSLRLSCAASGFTFSNYVMHWVRQAPGKGLEWVSSIFGSGSDTYYADSVKGRFTISRDNSKNTLYLQMNSLRAEDTAVYYCARSASSGFGFAGYGIDSWGQGTLVTVSS
VL: DIELTQPPSVSVAPGQTARISCSGDSLRYYYAHWYQQKPGQAPVLVIYDDNKRPSGIPERFSGSNSGNTATLTISGTQAEDEADYYCQSWDLFHSSVFGGGTKLTVL
notes: Fab format made in E. coli
- Kd [4]: 2270 nM
- Kd [5]: 140 nM
- Adhesion Assay Mn2+-dependent hOPN, IC50 [6]: 157 nM
- Kd [7]: 35 nM

B3: MOR-10475 Fab (Fab, V domains shown)
VH: QVQLVESGGGLVQPGGSLRLSCAASGFTFSNYVMHWVRQAPGKGLEWVSSIFGSGSDTYYADSVKGRFTISRDNSKNTLYLQMNSLRAEDTAVYYCARSASSGFGFAGYGIDSWGQGTLVTVSS
VL: DIELTQPPSVSVAPGQTARISCSGDSLRYYYAHWYQQKPGQAPVLVIYDDNKRPSGIPERFSGSNSGNTATLTISGTQAEDEADYYCQAWDLINSHVFGGGTKLTVL
notes: Only variable domains are tied to the Fab
- Kd [8]: 41 nM
- EC50 [9]: 0.6 nM
- EC50 [10]: 0.7 nM
- EC50 [11]: 0.6 nM
- EC50 [12]: 0.7 nM
- Kd [13]: 80 nM

B4: HuCAL GOLD Fab 6993 (MOR-6993 Fab) (Fab, V domains shown)
VH: QVQLVESGGGLVQPGGSLRLSCAASGFTFTTSSMHWVRQAPGKGLEWVSRISSHGSNTYYADSVKGRFTISRDNSKNTLYLQMNSLRAEDTAVYYCARDMYRGVYGFALWGQGTLVTVSS
VL: DIELTQPPSVSVAPGQTARISCSGDAIRNYYVHWYQQKPGQAPVLVIYEDSDRPSGIPERFSGSNSGNTATLTISGTQAEDEADYYCQSYDKSNVVFGGGTKLTVL
notes: Fab format made in E. coli
- Kd [4]: 3980 nM
- Kd [5]: 70 nM
- Adhesion Assay Mn2+-dependent hOPN, IC50 [6]: 29.8 nM
- Kd [7]: 0.2 nM

B5: MOR-6993 (full length human IgG2) (antibody, V domains shown)
VH: QVQLVESGGGLVQPGGSLRLSCAASGFTFTTSSMHWVRQAPGKGLEWVSRISSHGSNTYYADSVKGRFTISRDNSKNTLYLQMNSLRAEDTAVYYCARDMYRGVYGFALWGQGTLVTVSS
VL: DIELTQPPSVSVAPGQTARISCSGDAIRNYYVHWYQQKPGQAPVLVIYEDSDRPSGIPERFSGSNSGNTATLTISGTQAEDEADYYCQSYDKSNVVFGGGTKLTVLG
notes: as for B1
- Kd [1]: 0.752 nM
- koff [1]: 0.00462 s⁻¹
- kon [1]: 6.14e+06 M⁻¹ s⁻¹
- Adhesion Assay Mn2+-dependent hOPN, IC50 [2]: 0.4 nM
- Kd [3]: 0.747 nM
- koff [3]: 0.00496 s⁻¹
- kon [3]: 6.64e+06 M⁻¹ s⁻¹

B6: HuCAL GOLD Fab 6991 (MOR-6991 Fab) (Fab, V domains shown)
VH: QVQLVESGGGLVQPGGSLRLSCAASGFTFNNYAVSWVRQAPGKGLEWVSGISYGGSNTYYADSVKGRFTISRDNSKNTLYLQMNSLRAEDTAVYYCARTLGGDFDHWGQGTLVTVSS
VL: DIVLTQPPSVSGAPGQRVTISCSGSSSNIGSNYVNWYQQLPGTAPKLLIYGNSKRPSGVPDRFSGSKSGTSASLAITGLQSEDEADYYCQSFTQMLLVFGGGTKLTVL
notes: Fab format made in E. coli
- Kd [4]: 1390 nM
- Kd [5]: 300 nM
- Adhesion Assay Mn2+-dependent hOPN, IC50 [6]: 264 nM
- Kd [7]: 3 nM

B7: MOR-6991 (full length human IgG2) (antibody, V domains shown)
VH: QVQLVESGGGLVQPGGSLRLSCAASGFTFNNYAVSWVRQAPGKGLEWVSGISYGGSNTYYADSVKGRFTISRDNSKNTLYLQMNSLRAEDTAVYYCARTLGGDFDHWGQGTLVTVSS
VL: DIVLTQPPSVSGAPGQRVTISCSGSSSNIGSNYVNWYQQLPGTAPKLLIYGNSKRPSGVPDRFSGSKSGTSASLAITGLQSEDEADYYCQSFTQMLLVFGGGTKLTVLG
notes: as for B1
- Kd [1]: 19 nM
- koff [1]: 0.00933 s⁻¹
- kon [1]: 491000 M⁻¹ s⁻¹
- Adhesion Assay Mn2+-dependent hOPN, IC50 [2]: 0.6 nM
